Measurements published in PMC8249414.

Target: nucleosome core particle with 167 bp '601' DNA (167NCP)

Km of nucleosome remodeling (enzyme 10-640 nM), against ALC1 (1-673): 2 fold
Substance: ALC1 (1-673) D381A mutant (from UniProt Q86WJ1 1-673) (domain or fragment)
